Values of other authors, collected in patent US20130145495A1, “ENHANCED CARBON FIXATION IN PHOTOSYNTHETIC HOSTS” (DONALD DANFORTH PLANT SCIENCE CENTER, priority 2010, published 2013).

B1: hCAVII: human α-carbonic anhydrase isoenzyme VII, cytosol (protein, UniProt P43166 1-264, looked up)
Carbonic anhydrase 7: MTGHHGWGYGQDDGPSHWHKLYPIAQGDRQSPINIISSQAVYSPSLQPLELSYEACMSLSITNNGHSVQVDFNDSDDRTVVTGGPLEGPYRLKQFHFHWGKKHDVGSEHTVDGKSFPSELHLVHWNAKKYSTFGEAASAPDGLAVVGVFLETGDEHPSMNRLTDALYMVRFKGTKAQFSCFNPKCLLPASRHYWTYPGSLTTPPLSESVTWIVLREPICISERQMGKFRSLLFTSEDDERIHMVNNFRPPQPLKGRVVKASFRA
B2: hCAXV: α-carbonic anhydrase isoenzyme XV, membrane (protein, UniProt Q99N23 19-324, looked up)
Carbonic anhydrase 15: VDSSGTWCYDSQDPKCGPAHWKELAPACGGPTQSPINIDLRLVQRDYTLKPFIFQGYDSAPQDPWVLENDGHTVLLRVNSCQQNCPAIRGAGLPSPEYRLLQLHFHWGSPGHQGSEHSLDEKHGSMEMHMVHMNTKYQSMEDARSQPDGFAILAVLLVEEDRDNTNFSAIVSGLKNLSSPGVAVNLTSTFALASLLPSALRLLRYYRYSGSLTTPGCEPAVLWTVFENTVPIGHAQVVQFQAVLQTGPPGLHPRPLTSNFRPQQPLGGRRISASPEASVRSSVSTLPCLHLALVGLGVGLRLWQGP
B3: hCAVB: human α-carbonic anhydrase isoenzyme VB, mitochondria (protein, UniProt Q9Y2D0 34-317, looked up)
Carbonic anhydrase 5B, …: CSLYTCTYKTRNRALHPLWESVDLVPGGDRQSPINIRWRDSVYDPGLKPLTISYDPATCLHVWNNGYSFLVEFEDSTDKSVIKGGPLEHNYRLKQFHFHWGAIDAWGSEHTVDSKCFPAELHLVHWNAVRFENFEDAALEENGLAVIGVFLKLGKHHKELQKLVDTLPSIKHKDALVEFGSFDPSCLMPTCPDYWTYSGSLTTPPLSESVTWIIKKQPVEVDHDQLEQFRTLLFTSEGEKEKRMVDNFRPLQPLMNRTVRSSFRHDYVLNVQAKPKPATSQATP
B4: hCAVA: human α-carbonic anhydrase isoenzyme VA, mitochondria (protein, UniProt P35218 39-305, looked up)
Carbonic anhydrase 5A, …: CAWQTSNNTLHPLWTVPVSVPGGTRQSPINIQWRDSVYDPQLKPLRVSYEAASCLYIWNTGYLFQVEFDDATEASGISGGPLENHYRLKQFHFHWGAVNEGGSEHTVDGHAYPAELHLVHWNSVKYQNYKEAVVGENGLAVIGVFLKLGAHHQTLQRLVDILPEIKHKDARAAMRPFDPSTLLPTCWDYWTYAGSLTTPPLTESVTWIIQKEPVEVAPSQLSAFRTLLFSALGEEEKMMVNNYRPLQPLMNRKVWASFQATNEGTRS
B5: hCAXII: human α-carbonic anhydrase isoenzyme XII, transmembrane (protein, UniProt O43570 25-354, looked up)
Carbonic anhydrase 12: APVNGSKWTYFGPDGENSWSKKYPSCGGLLQSPIDLHSDILQYDASLTPLEFQGYNLSANKQFLLTNNGHSVKLNLPSDMHIQGLQSRYSATQLHLHWGNPNDPHGSEHTVSGQHFAAELHIVHYNSDLYPDASTASNKSEGLAVLAVLIEMGSFNPSYDKIFSHLQHVKYKGQEAFVPGFNIEELLPERTAEYYRYRGSLTTPPCNPTVLWTVFRNPVQISQEQLLALETALYCTHMDDPSPREMINNFRQVQKFDERLVYTSFSQVQVCTAAGLSLGIILSLALAGILGICIVVVVSIWLFRRKSIKKGDNKGVIYKPATKMETEAHA
B6: hCAIV: human α-carbonic anhydrase isoenzyme IV, membrane (protein, UniProt P22748 19-284, looked up)
Carbonic anhydrase 4: AESHWCYEVQAESSNYPCLVPVKWGGNCQKDRQSPINIVTTKAKVDKKLGRFFFSGYDKKQTWTVQNNGHSVMMLLENKASISGGGLPAPYQAKQLHLHWSDLPYKGSEHSLDGEHFAMEMHIVHEKEKGTSRNVKEAQDPEDEIAVLAFLVEAGTQVNEGFQPLVEALSNIPKPEMSTTMAESSLLDLLPKEEKLRHYFRYLGSLTTPTCDEKVVWTVFREPIQLHREQILAFSQKLYYDKEQTVSMKDNVRPLQQLGQRTVIKS
B7: hCAVI: human α-carbonic anhydrase isoenzyme VI, secreted (protein, UniProt P23280 18-308, looked up)
Carbonic anhydrase 6: QHVSDWTYSEGALDEAHWPQHYPACGGQRQSPINLQRTKVRYNPSLKGLNMTGYETQAGEFPMVNNGHTVQISLPSTMRMTVADGTVYIAQQMHFHWGGASSEISGSEHTVDGIRHVIEIHIVHYNSKYKSYDIAQDAPDGLAVLAAFVEVKNYPENTYYSNFISHLANIKYPGQRTTLTGLDVQDMLPRNLQHYYTYHGSLTTPPCTENVHWFVLADFVKLSRTQVWKLENSLLDHRNKTIHNDYRRTQPLNHRVVESNFPNQEYTLGSEFQFYLHKIEEILDYLRRALN
B8: hCAIII: human α-carbonic anhydrase isoenzyme III, cytosol (protein, UniProt P07451 2-260, looked up)
Carbonic anhydrase 3: AKEWGYASHNGPDHWHELFPNAKGENQSPVELHTKDIRHDPSLQPWSVSYDGGSAKTILNNGKTCRVVFDDTYDRSMLRGGPLPGPYRLRQFHLHWGSSDDHGSEHTVDGVKYAAELHLVHWNPKYNTFKEALKQRDGIAVIGIFLKIGHENGEFQIFLDALDKIKTKGKEAPFTKFDPSCLFPACRDYWTYQGSFTTPPCEECIVWLLLKEPMTVSSDQMAKLRSLLSSAENEPPVPLVSNWRPPQPINNRVVRASFK
B9: hCAXIV: human α-carbonic anhydrase isoenzyme XIV, transmembrane (protein, UniProt Q9ULX7 16-337, looked up)
Carbonic anhydrase 14: ADGGQHWTYEGPHGQDHWPASYPECGNNAQSPIDIQTDSVTFDPDLPALQPHGYDQPGTEPLDLHNNGHTVQLSLPSTLYLGGLPRKYVAAQLHLHWGQKGSPGGSEHQINSEATFAELHIVHYDSDSYDSLSEAAERPQGLAVLGILIEVGETKNIAYEHILSHLHEVRHKDQKTSVPPFNLRELLPKQLGQYFRYNGSLTTPPCYQSVLWTVFYRRSQISMEQLEKLQGTLFSTEEEPSKLLVQNYRALQPLNQRMVFASFIQAGSSYTTGEMLSLGVGILVGCLCLLLAVYFIARKIRKKRLENRKSVVFTSAQATTEA

System: carbonic anhydrase

Question: For “hCAI: human α-carbonic anhydrase isoenzyme I, cytosol”, which Kcat is on record?
Answer: Its Kcat is 200000 s⁻¹.

Question: With “hCAXIII: human α-carbonic anhydrase isoenzyme XIII, cytosol” as the molecule, how does the Kcat read?
Answer: Its Kcat is 150000 s⁻¹.

Question: With B1 as the molecule, how does the Kcat read?
Answer: Its Kcat is 950000 s⁻¹.

Question: With B2 as the molecule, how does the Kcat read?
Answer: The Kcat was 470000 s⁻¹.

Question: With B3 as the molecule, how does the Kcat read?
Answer: The Kcat was 950000 s⁻¹.

Question: For B4, which Kcat is on record?
Answer: The Kcat was 290000 s⁻¹.

Question: Which Kcat does the source give for B5 here?
Answer: Its Kcat is 420000 s⁻¹.

Question: With B6 as the molecule, how does the Kcat read?
Answer: Its Kcat is 1e+06 s⁻¹.

Question: For B7, which Kcat is on record?
Answer: The Kcat was 340000 s⁻¹.

Question: With B8 as the molecule, how does the Kcat read?
Answer: Its Kcat is 10000 s⁻¹.

Question: Which Kcat does the source give for B9 here?
Answer: The Kcat was 310000 s⁻¹.
